Measured values from patent publication US20230212304A1 (BIOSION, published 2023).
Positions count from the first letter of the chain named.

T1: recombinant human CTLA4 protein with human IgG1 Fc tag at the C-terminus (Acro biosystems, Cat#CT4-H5255) (human, UniProt P16410 37-162)
T1 sequence (looked up): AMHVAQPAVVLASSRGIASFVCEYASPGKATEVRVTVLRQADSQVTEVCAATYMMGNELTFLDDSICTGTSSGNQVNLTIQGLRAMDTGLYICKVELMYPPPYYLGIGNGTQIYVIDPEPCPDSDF

T2: recombinant human CTLA4-his protein (Acro biosystems, Cat#CT4-H5229) (human, UniProt P16410 37-162)
T2 construct: bought recombinant protein; not shown: his tag
T2 sequence (looked up): T1 sequence (looked up)

T3: cynomolgus monkey CTLA4-his protein (Acro biosystems, Cat#CT4-C5227) (cynomolgus monkey, UniProt G7PL88 36-161)
T3 construct: bought recombinant protein; also called Cynomolgus CTLA4-his; not shown: his tag
T3 sequence: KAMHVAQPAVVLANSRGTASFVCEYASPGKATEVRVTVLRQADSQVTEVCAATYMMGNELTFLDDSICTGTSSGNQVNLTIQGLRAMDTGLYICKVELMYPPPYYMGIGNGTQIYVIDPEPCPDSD

B1: mouse anti-CTLA4 monoclonal antibody D1A7 (antibody, V domains shown)
VH: QVTLKESGPGMLQPSQTLSLTCSFSGFSLSSSKLGVGWIRQPAGKGLEWLAHIWWNDDNYYVPSLKSRLTISKDTSNNQVFLKITNVDAADTATYYCVQVPYYTTQPWFAYWGQGTLVTVSA
VL: DIQMTQSPASLSASVGETVTITCRASGNIHNYLAWYLQNQGRSPQLLVYNTETLADGVSSRFSGSGSGTQYFLKISSLQPEDFGTYYCQHLWSTPWTFGGGTKLEIK
notes: mouse mAb purified from hybridoma supernatant
B2: mouse anti-CTLA4 monoclonal antibody D1G6 (antibody, V domains shown)
VH: EVQLQQSGPELVKPGASVKLSCKASGNTFTTYVLNWVKQKPGQGLEWIGYFNPYNDAIKYNEKFKGKATLTSDKSSSTAYMELSSLTSEDSAVYYCARFEGGGYAMDYWGQGTSVTVSS
VL: DIVLTQSPASLAVSLGQRATISCRASQSVGTSSYSYIHWYQQKPGQPPKLLIKYASDLESGVPARFSGSGSGTDFTLNIHPVEEEDTATYYCQHSWEIPYTFGGGTKLEIK
notes: as for B1
B3: mouse anti-CTLA4 monoclonal antibody D1B8 (antibody, V domains shown)
VH: QIQLQQSGPELVKPGASVKISCKASGYTFTDYYINWVKQRPGQGLEWIGWIYPGNNNTRYNEKFKGKATLTIDTSSSTAFMHLSSLTSEDSAVYFCARYYFDYWGQGTTLTVSS
VL: DIQMTQSPSSLSASLGERISLTCRASQEITGYLSWLQQKPDGTIKRLIYAASTLDSGVPQRFSGSRSGSDYSLTISSLESEDFADYYCLQYASYPRTFGGGTKLEIK
notes: as for B1
B4: chimeric D1B8 anti-CTLA4 antibody (antibody, human IgG4 S228P, kappa, V domains shown)
VH: B3 VH
VL: DIQMTQSPSSLSASLGERISLTCRASQEITGYLSWLQQKPDGTIKRLIYAASTLDSGVPQRFSGSRSGSDYSLTISSLESEDFADYYCLQYASYPRTFGGGTKLEIKR
notes: mouse variable domains on human IgG4/kappa
B5: huD1D5-V10 (antibody, human IgG4 S228P, kappa, V domains shown)
VH: EVQLVESGGGLVKPGGSLRLSCAASGFTFSDYGMAWVRQAPGKGLEWVAFISNLAYSVYYADTETGRFTISRDNAKNSLYLQMNSLRAEDTAVYYCARSGLPYAMDYWGQGTTVTVSS
VL: DIQMTQSPSSLSASVGDRVTITCRASQDISNYLNWYQQKPGKVPKLLIYYISRLHSGVPSRFSGSGSGTDFTLTISSLQPEDVATYYCQQGRMLPWTFGGGTKVEIKR
notes: humanized IgG4/kappa; tested as 293F cell supernatant on Octet; also called hu CTLA4 D1D5-V10
B6: huD1D5-V12 (antibody, human IgG4 S228P, kappa, V domains shown)
VH: B5 VH with A49S
VL: B5 VL
notes: humanized IgG4/kappa; tested as 293F cell supernatant on Octet; also called hu CTLA4 D1D5-V12
B7: huD1D5-V11 (antibody, human IgG4 S228P, kappa, V domains shown)
VH: B5 VH with N74D
VL: B5 VL
notes: humanized IgG4/kappa; tested as 293F cell supernatant on Octet; also called hu CTLA4 D1D5-V11
B8: mouse anti-CTLA4 monoclonal antibody D1H4 (antibody, V domains shown)
VH: EVQLQQSGPVLVKPGASVKMSCKASGYTFTDYYMNWVKQSHGKSLEWIGAINPDHGGSSYNQKFKGKATLTVDKSSSTAYMELNSLTSEDSAVYYCARDGSIHYVMDDWGQGTSVTVSS
VL: DIVMSQSPSSLTVSAGDKVTMSCKSSQSLLHSGNQKNYLAWYQQKPWQPPKLLIYGASTRESGVPDRFTGSGSGTDFTLTISSVQAEDLAVYYCQNDYGYPYTFGGGTKLEIK
notes: as for B1
B9: mouse anti-CTLA4 monoclonal antibody D1H3 (antibody, V domains shown)
VH: QVQLQQPGAELVNPGASVKLSCKASGYTFTSYWLHWVKQRPGRGLEWIGRIDPNRGTIYYNEKFNNKATVTVDKPSNTAYMQLSRLTLEDSAVYYCARGGSNFYAMDYWGQGTSVTVSS
VL: DIQMTQSPASLSASVGETVTITCRTSENIYSYLAWYQQKQGESPQLLVYNAKTLAEGVPSRFSGSGSGTQFSLKINSLQPEDFGSYYCQNHDGIPFTFGSGTKLEIK
notes: as for B1
B10: mouse anti-CTLA4 monoclonal antibody D2A4 (antibody, V domains shown)
VH: QVQLQQPGAELVKPGSSVNLSCKASGYTFTSYWVHWVKQGPGRGLEWIGRIDPNRGGTYYNENFKTKAALTVDSPSSTAYMHLSSLTSEDSAVYYCARGGLNYYALDYWGQGTSVTVSS
VL: DIQMTQSPASLFASLGETVTITCRASENIYSYLAWYQQKQGKSPQLLVYNANTLTEGVPSSFSGSGSGTQFSLKINTLQPEDFGTYYCQHHYGIPFTFGSGTKLEIK
notes: as for B1

Legend:
[1] = target: T1, recombinant human CTLA4 protein with …; experiment: cell-based or functional assay
[2] = target: T2, recombinant human CTLA4-his protein …; experiment: SPR, Biacore T200; antibody captured, CTLA4-his as analyte
Protocol: (§1) Un-reacted moieties on the biosensor surface were blocked with ethanolamine. […] The antigen-antibody association kinetics was followed for 2 minutes and the dissociation kinetics was followed for 10 minutes. The association and dissociation curves were fit to a 1:1 Langmuir binding model using BIAcore evaluation software.

[3] = target: T3, cynomolgus monkey CTLA4-his protein …; experiment: as above
Protocol: as §1

[4] = target: T1, recombinant human CTLA4 protein with …; experiment: capture ELISA: antibody captured on anti-mouse IgG F(ab')2 coated plate, biotin human CTLA4-Fc 26 ng/ml, streptavidin-HRP, OD(450-630)
Protocol: (§2) Plates were washed once with wash buffer (PBS+0.05% v/v Tween-20, PBST) and then blocked with 200 µl/well blocking buffer (PBST with 5% w/v non-fatty milk) for 2 hours at 37° C. […] After a final wash, plates were incubated with 100 µl/well substrate TMB (Innoreagents, Cat#TMB-S-002). The reaction was stopped in 15 minutes at room temperature with 50 µl/well 1M H₂SO₄, and the absorbance of the each well was read on a microplate reader using dual wavelength mode with 450 nm for TMB and 630 nm as the reference wavelength, then the OD (450-630) values were plotted against antibody concentration. Data was analyzed using Graphpad Prism software and EC₅₀ values were reported.

[5] = target: T1, recombinant human CTLA4 protein with …; experiment: cell based blocking FACS: antibody pre-mixed with human CTLA4-Fc (1 ug/mL), added to Daudi cells; blocked ligands: cell surface CD80/CD86
Protocol: Daudi cells were harvested from cell culture flasks at the log phase, washed twice and re-suspended in PBS containing 2% v/v Fetal Bovine Serum (FACS buffer). […] Cells were washed twice and re-suspended in FACS buffer. Fluorescence was measured using a Becton Dickinson FACS Canto II-HTS equipment. Data was analyzed using Graphpad Prism software and IC₅₀ values were reported.

[6] = target: T1, recombinant human CTLA4 protein with …; experiment: competitive ELISA: antibody pre-mixed with biotin human CTLA4-Fc (65 ng/ml), added to plate coated with the benchmark; competitor: coated Yervoy
Protocol: Plates were washed once with wash buffer, blocked with 200 µl PBST with 5% w/v non-fatty milk, incubated for 2 hours at 37° C., and washed 4 times.
After incubation at 37° C. for 40 minutes, plates were washed 4 times again using wash buffer. Then the plates were added and incubated with 100 µl/well streptavidin conjugated HRP (1:10000 dilution in PBST, Jackson Immuno Research, Cat#016-030-084, 100 µl/well) for 40 minutes at 37° C. Plates were finally washed using wash buffer. Finally, TMB was added and the reaction was stopped using 1M H₂SO₄, and the absorbance of the each well was read on a microplate reader using dual wavelength mode with 450 nm for TMB and 630 nm as the reference wavelength, then the OD (450-630) values were plotted against antibody concentration. Data was analyzed using Graphpad Prism software and IC₅₀ values were reported.

[7] = target: T1, recombinant human CTLA4 protein with …; experiment: capture ELISA: antibody captured on coated plate (anti-human IgG Fc for the chimeric antibodies), biotin human CTLA4-Fc, streptavidin-HRP, OD(450-630)
Protocol: as §2
For the capture ELISA, AffiniPure Goat Anti-Human IgG, Fcy fragment specific (Jackson Immuno Research, Cat#109-005-008) was used instead of AffiniPure Goat Anti-Mouse IgG, F(ab′)₂ fragment specific, 100 µl/well.

[8] = target: T2, recombinant human CTLA4-his protein …; experiment: BLI, Octet; antibody from cell supernatant on AHC sensor, CTLA4-his as analyte
Protocol: Briefly, AHC biosensors (anti-human IgG Fc capture, from ForteBio) were presoaked with 10 mM glycine (pH 1.5) for 3 seconds, and then dipped in a well with running buffer (0.5% w/v BSA in PBST) for 3 seconds, the soaking and dipping steps were repeated for three times. […] A new baseline was run for 180 seconds in another well with running buffer. […] Finally, sensors were presoaked with 10 mM glycine (pH 1.5) for 3 seconds, and then were dipped in a well with running buffer for 3 seconds, the soaking and dipping steps repeated for three times. The association and dissociation curves were fit to a 1:1 Langmuir binding model using ForteBio Data Analysis 8.1.

| Binder | EC50 of IL-2 release (GS-J1 T cells + GS-C1/CD80 cells + human CTLA4-Fc, IL-2 HTRF) [1] | Kd [2] | koff [2] | kon [2] | Kd [3] | koff [3] | kon [3] | EC50 [4] | IC50 [5] | IC50 [6] | EC50 [7] | Kd [8] | koff [8] | kon [8] | IC50 (read off the curve) [6] |
| --- | --- | --- | --- | --- | --- | --- | --- | --- | --- | --- | --- | --- | --- | --- | --- |
| B1 | 45.9 nM | 2.41 nM | 0.000602 s⁻¹ | 249000 M⁻¹ s⁻¹ | 1.66 nM | 0.00137 s⁻¹ | 829000 M⁻¹ s⁻¹ | 0.134 nM | 6.81 nM | 0.445 nM |  |  |  |  |  |
| B2 | 41.5 nM | 9.06 nM | 0.000695 s⁻¹ | 76700 M⁻¹ s⁻¹ | 1.96 nM | 0.000662 s⁻¹ | 338000 M⁻¹ s⁻¹ | 0.0979 nM |  | 0.445 nM |  |  |  |  |  |
| B3 | 43.6 nM | 2.24 nM | 0.000495 s⁻¹ | 221000 M⁻¹ s⁻¹ | 1.18 nM | 0.000532 s⁻¹ | 451000 M⁻¹ s⁻¹ | 1.11 nM |  |  | 5.78 nM |  |  |  |  |
| B4 |  |  |  |  |  |  |  |  |  |  | 2.84 nM |  |  |  |  |
| B5 |  |  |  |  |  |  |  |  |  |  |  | 33 nM | 0.00163 s⁻¹ | 49300 M⁻¹ s⁻¹ |  |
| B6 |  |  |  |  |  |  |  |  |  |  |  | 37.4 nM | 0.00133 s⁻¹ | 35500 M⁻¹ s⁻¹ |  |
| B7 |  |  |  |  |  |  |  |  |  |  |  | 6.94 nM | 0.000538 s⁻¹ | 77500 M⁻¹ s⁻¹ |  |
| B8 | ~40.8 nM | 0.925 nM | 0.000321 s⁻¹ | 346000 M⁻¹ s⁻¹ | 0.727 nM | 0.000422 s⁻¹ | 580000 M⁻¹ s⁻¹ | 0.108 nM | ~8.85 nM |  |  |  |  |  | ~2 nM |
| B9 | 37.8 nM | 4.15 nM | 0.000931 s⁻¹ | 224000 M⁻¹ s⁻¹ | 2.07 nM | 0.000601 s⁻¹ | 290000 M⁻¹ s⁻¹ | 0.206 nM | 9.27 nM | 1.86 nM |  |  |  |  |  |
| B10 | 38.3 nM | 2.24 nM | 0.00153 s⁻¹ | 671000 M⁻¹ s⁻¹ | 2.24 nM | 0.00076 s⁻¹ | 340000 M⁻¹ s⁻¹ | 0.245 nM | 7.12 nM | 3.85 nM |  |  |  |  |  |
